Literature values as cited in publication PMC2913173.

Biological target: Bcl-2 (Homo sapiens) (UniProt P10415)
Assay: fluorescence polarization

Bcl-2 (Homo sapiens), sequence (P10415 whole entry): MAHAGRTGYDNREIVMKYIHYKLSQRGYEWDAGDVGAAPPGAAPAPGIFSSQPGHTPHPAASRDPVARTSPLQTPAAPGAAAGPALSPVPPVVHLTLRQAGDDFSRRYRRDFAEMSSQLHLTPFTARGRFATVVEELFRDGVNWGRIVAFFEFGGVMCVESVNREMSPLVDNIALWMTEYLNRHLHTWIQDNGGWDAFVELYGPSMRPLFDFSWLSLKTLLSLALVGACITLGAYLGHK

Kd: 1.6 µM
Substance: Bak 72-87 (from UniProt Q16611)
